Assay results: IntAct's records for PubMed 23022437

B1: Sodium channel protein type 7 subunit alpha (Mus musculus), B1AYL1 (parent)
chain: MLTSPEPKGLVPFTTESLELIENHIAKKCNEDPEEEEGLKPSRNLEAGKRLPIPYGTLPRGTVSEPLEDVDPYYYVKRNTFMVLNRSRVIFRFNAVSIFCTLSPLNSLRRAAIKALVHPLFRLLILISVLTDSILMCMSNLPEWILAIENTLLGIYAFEILVKVIARGIWAGSFSFLGDLWNWLDFSVTLFELITRFSPLSSFLMLKTIRTFRILKIIPLNHGLQSIVMTLAQCLKKLFGAIALALFFLAVFSLLGMGLFMGNLKHKCLRWPEENENETLHNRTGSLNYSPERINFYYMEGAKYALLCGNRTDAGQCPEGYVCVKEGTNPDNGFTSFDNFGWSLLAMFRLMTQDYPELLYHQILYASGKVYMIFFVMISFWFAFYLTSLFLGILTMTYEKEKQRACEESGGLDPKCQQTVKELDEENDAAEMETTQIEMKKRSPTSINTTLDILEDTTLGHREEPETSRKKCPICWHKFIKTCFIWKCSPCWVKLNEFADRVITHPLADLFLVICIVLNICFLALEHFPMSEELRSLLHVGNLVFIGIYTIEMILKIIAMHPYGYFQISWNIFDSILVVLELTEILLADVEGLAVLITVPLIFIKLGKYGPPFKSLMRILGSSLMALKDLVLLLCIFVYFSAVFGMKLFGRSYKDCVCHIKEDCQPQRWHMSDFLHAYMTVFRILCGEWIETLWECMEVAGQAWCIPFYMMVILIGNLLILYLFVTLVSSFSYYDATSEVNKEAKNLQLAMARIKSGINSMLLKLMCTERSVPTEATDQICDPSVKENISGHTLSELSNTQTFLRYKDQSSSTEKTPVTESESQSLIASPSASETVPIASGESDIENLDNKETRSKSGNGGSKEKMKQSSSSECSTVDIAISEEEEMVYEHEKSKLHKNGYERKSSTGQISRESRNGKIWKNIRKTCCKIVENSWFECFIGLVTLLCTGTLALEDIYIDQRKTTKILLEYADMIFAYIFILEMLLKWVAYGFKAFFSNNWYKLDFMVVIVFCLSLIGKTREDLNPLTSIKFLRALRVLSQFERMKVVLRALIKTTLPTVSVFLVCLMIWLLFSVIGVQLFAGKFYECIDPTKGERFPVFEVMNKSQCEKLLFNESMPWENAKLNFDNVGNGFLSLLQVATFNGWISIMNSAIDSVGVNMQPSFEYNLYMYSYFIIFVIFGLFLPLCMLIGVIIRNFNKQKIKQGGSNIFITVKQKKQYRALKKLLYADVQKPTPRPRNKFQGFLFDLVTHRVFNVIIILLICFQATTIMIQKDEQSPQMETAIFWMNSIFVMLFTLECILKLTAFRCHYFTSAWNVHDFMVVIFSITGLLLPLTIGQYFVPPSLVQLILLSRVIHILRPGKGPKVFHDLMLPLILALPALLNISLLIFLVMFIYAIFGMYNFAYVKKEAGINDVSNFETFGSSMLCLFQVTTFSGWDGMLDAIFNSQWSDCDPDKINPGTQVKGDCGSPSVGISYFVSYILISWLIIVNMYIVLIMEFLSIPSQKKSRTLSEDDFRRFFRVWNRFDPDRTQYIDSSKLSDFAAALDPPLFMAKPNKGQLVAMDLPMAAGDRIHCLDILLAFTKRVMGKDERVEKILSEIESGFMLANPFKITYEPITTTLKRKQEAVSATIIQRAYKSYRLRQNDKNVSDTPAIDDRRDDLTSKGAHSGKIEEKASIQTQI

Variants of: B1
Settings: with dlg1_mouse Dlg1, Q811D0
dlg1_mouse Dlg1, Q811D0, sequence (Q811D0 whole entry): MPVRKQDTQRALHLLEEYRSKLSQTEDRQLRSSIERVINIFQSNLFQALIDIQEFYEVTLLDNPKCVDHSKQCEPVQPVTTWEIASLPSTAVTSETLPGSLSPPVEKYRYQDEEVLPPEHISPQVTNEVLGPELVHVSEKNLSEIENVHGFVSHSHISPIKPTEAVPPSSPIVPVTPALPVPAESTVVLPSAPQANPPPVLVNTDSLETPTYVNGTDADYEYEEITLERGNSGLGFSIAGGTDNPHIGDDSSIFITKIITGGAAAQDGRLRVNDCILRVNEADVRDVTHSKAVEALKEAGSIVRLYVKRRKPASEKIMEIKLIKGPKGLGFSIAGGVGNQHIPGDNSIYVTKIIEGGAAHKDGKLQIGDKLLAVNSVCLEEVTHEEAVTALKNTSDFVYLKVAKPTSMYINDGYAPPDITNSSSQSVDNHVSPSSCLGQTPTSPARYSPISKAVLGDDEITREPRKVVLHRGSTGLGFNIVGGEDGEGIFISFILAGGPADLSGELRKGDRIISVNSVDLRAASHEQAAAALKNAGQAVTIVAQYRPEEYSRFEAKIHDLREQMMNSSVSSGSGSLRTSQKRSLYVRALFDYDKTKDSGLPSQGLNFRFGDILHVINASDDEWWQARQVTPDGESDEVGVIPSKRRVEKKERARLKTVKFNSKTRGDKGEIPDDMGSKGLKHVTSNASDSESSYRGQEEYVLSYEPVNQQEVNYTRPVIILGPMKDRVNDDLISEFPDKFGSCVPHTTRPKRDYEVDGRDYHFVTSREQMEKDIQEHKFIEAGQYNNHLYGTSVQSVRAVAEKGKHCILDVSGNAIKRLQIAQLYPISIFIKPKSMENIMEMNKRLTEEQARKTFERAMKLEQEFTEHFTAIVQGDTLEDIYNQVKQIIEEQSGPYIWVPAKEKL

effect of a mutation on the interaction | Variant
disrupting interaction | T1679A

Variants of: B1
Settings: with dlg1_rat Dlg1, Q62696
dlg1_rat Dlg1, Q62696, sequence (Q62696 whole entry): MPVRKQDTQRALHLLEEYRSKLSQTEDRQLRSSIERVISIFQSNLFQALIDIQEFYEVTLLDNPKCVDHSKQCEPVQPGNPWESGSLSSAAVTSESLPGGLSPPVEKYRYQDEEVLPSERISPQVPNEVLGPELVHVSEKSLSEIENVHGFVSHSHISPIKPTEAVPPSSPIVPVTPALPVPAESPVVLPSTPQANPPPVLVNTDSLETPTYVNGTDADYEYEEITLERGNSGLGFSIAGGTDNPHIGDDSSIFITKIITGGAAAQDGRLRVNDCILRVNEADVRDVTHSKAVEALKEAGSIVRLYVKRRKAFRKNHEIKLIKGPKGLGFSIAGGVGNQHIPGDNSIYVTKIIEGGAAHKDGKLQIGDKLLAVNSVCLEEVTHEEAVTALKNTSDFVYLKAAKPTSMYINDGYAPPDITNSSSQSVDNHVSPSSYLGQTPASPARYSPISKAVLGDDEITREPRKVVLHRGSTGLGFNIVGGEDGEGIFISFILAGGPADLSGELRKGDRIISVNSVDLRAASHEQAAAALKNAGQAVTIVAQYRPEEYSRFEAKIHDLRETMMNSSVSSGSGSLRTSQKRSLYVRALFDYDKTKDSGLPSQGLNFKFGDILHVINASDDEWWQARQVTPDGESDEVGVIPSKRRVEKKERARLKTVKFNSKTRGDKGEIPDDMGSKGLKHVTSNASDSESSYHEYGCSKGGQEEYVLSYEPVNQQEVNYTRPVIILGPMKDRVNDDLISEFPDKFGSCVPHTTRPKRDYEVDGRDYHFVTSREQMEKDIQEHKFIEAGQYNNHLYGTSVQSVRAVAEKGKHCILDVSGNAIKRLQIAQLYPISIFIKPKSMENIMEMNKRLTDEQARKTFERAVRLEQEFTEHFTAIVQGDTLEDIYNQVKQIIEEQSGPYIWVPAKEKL

effect of a mutation on the interaction | Variant
disrupting interaction | T1679A
